The target of test [1] is T1, digoxigenated protein Dig-BP4.
T1 chain: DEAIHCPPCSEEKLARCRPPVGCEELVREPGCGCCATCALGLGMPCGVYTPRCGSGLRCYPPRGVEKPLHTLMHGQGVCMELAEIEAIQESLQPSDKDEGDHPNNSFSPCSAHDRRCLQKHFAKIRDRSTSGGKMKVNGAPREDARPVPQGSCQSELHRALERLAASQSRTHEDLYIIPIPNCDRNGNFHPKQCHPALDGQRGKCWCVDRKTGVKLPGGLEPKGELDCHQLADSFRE
The experiment in a line: SPR (Biacore), antibody captured by anti-human IgG, DIG-BP4 injected.
Method: (§1) Surfaces were blocked with an injection of 1 M ethanolamine/HCl pH 8.5. […] To evaluate the functionality of the recombinant <Dig> derivatives, binding of the recombinant hu<Dig> modules, incl.
(§2) Anti-mouse IgG antibody was immobilized on the surface of a CM5 biosensor chip in the same fashion as described above. […] The samples to be analyzed were diluted in HBS-P (10 mM HEPES, pH 7.4, 150 mM NaCl, 0.005% Surfactant P20) and injected at a flow rate of 5 μl/min. The contact time (association phase) was 3 min for the antibodies at a concentration between 1 and 5 nM. […] The contact time (association phase) was 3 min, the dissociation time (washing with running buffer) 5 min for each molecule at a flow rate of 30 μl/min. All interactions were performed at 25° C. (standard temperature). […] Signals were detected at a rate of one signal per second.

The target is the same in test [2]. In words: SPR (Biacore), antibody captured by anti-mouse IgG, DIG-BP4 injected. A general note: In SPR one partner is held on a chip, and binding of the other changes the refractive index at the surface.
Method: as §1, §2

B1: humanized <Dig> IgG (antibody, V domains shown)
VH: QVQLVESGGGLVKPGGSLRLSCAASGFTFSDYAMSWIRQAPGKGLEWVSSINIGATYIYYADSVKGRFTISRDNAKNSLYLQMNSLRAEDTAVYYCARPGSPYEYDKAYYSMAYWGQGTTVTVSS
VL: DIQMTQSPSSLSASVGDRVTITCRASQDIKNYLNWYQQKPGKAPKLLIYYSSTLLSGVPSRFSGSGSGTDFTLTISSLQPEDFATYYCQQSITLPPTFGGGTKVEIKR
notes: also called hu<Dig> IgG; DIGHu2
The molecule B1 gave a Kd in test [1] below 0.076 nM.

B2: murine <Dig> IgG1 kappa from mouse hybridoma clone 19-11 (antibody, V domains shown)
VH: EVQLVESGGGLVKPGGSLKLSCAVSGFTFSDYAMSWIRQTPENRLEWVASINIGATYAYYPDSVKGRFTISRDNAKNTLFLQMSSLGSEDTAMYYCARPGSPYEYDKAYYSMAYWGPGTSVTVSS
VL: DVQMTQSTSSLSASLGDRVTISCRASQDIKNYLNWYQQKPGGTVKLLIYYSSTLLSGVPSRFSGRGSGTDFSLTITNLEREDIATYFCQQSITLPPTFGGGTKLEIK
notes: also called murine DIG-IgG 19-11; mu<Dig> 19-11
Regarding B2, in test [2], binding was characterised by a dissociation constant (Kd) of 0.033 nM.

Usually Kd stands for the constant that tells how readily two partners part at equilibrium. A high value points to weaker binding.

For the origin of these results see US20130280279A1 (Hoffmann-La Roche, published 2013).
